# Data from the supplement of paper PMC10724198.
# System: Saccharomyces cerevisiae
# Assay: protein stability index of tFT-peptide fusion in deletion strain of DAS1 (PSI (0-1 scale)); higher = more stable (slower turnover)
# Protocol: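 MPS profiling in S. cerevisiae of two library types built from selected 12-aa C-degron peptides (IN1, IN2, LN1, LN3, VN2, R1-R5, W1-W3, Atg1 and Rpa12 C-termini): saturation mutagenesis libraries and C-terminal +1 capping libraries (13 aa). Each peptide is fused to the C-terminus of a sfGFP-mCherry timer, after a GGGS linker. Cells are FACS-sorted into 8 mCherry/sfGFP bins and sequenced. PSI runs from 0 (unstable) to 1 (stable), measured once in wild type and in the das1Δ or doa10Δ background.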
# 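Also: PSI is a weighted mean of each variant's read distribution over the sorted stability bins, computed only for variants having over 10 reads in total.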
row,Sequence,protein stability index
1,GRGAVGGWRLVG,0.671
2,IKHKKGQKQKIN,0.608
3,ITSCGYKFRTNN,0.674
4,KDHKKGQKQKIN,0.604
5,KKCKKGQKQKIN,0.593
6,KKHKKEQKQKIN,0.678
7,KKHKKGQKFKIN,0.572
8,KKHKKGQKNKIN,0.596
9,KKHKKGQKQAIN,0.6
10,KKHKKGQKQKEN,0.82
11,KKHKKGQKQKING,0.653
12,KKHKKGQKQKIT,0.598
13,KKHKKGQKQKIY,0.594
14,KKHKKGQKQKRN,0.575
15,KKHKKGQKQPIN,0.587
16,KKHKKGQKSKIN,0.562
17,KKHKKGQMQKIN,0.626
18,KKHKKGQRQKIN,0.599
19,KKHKKGQWQKIN,0.556
20,KKHKKYQKQKIN,0.587
21,KKHKPGQKQKIN,0.607
22,KKHKWGQKQKIN,0.589
23,KKHKYGQKQKIN,0.613
24,KKHLKGQKQKIN,0.608

row,Sequence,protein stability index
1,KKHQKGQKQKIN,0.597
2,KNHKKGQKQKIN,0.61
3,KSMRWTFRYWVN,0.578
4,LAVYLSCVACIN,0.0886
5,LCVYLSCVACIN,0.0253
6,LFILRQKMNHQN,0.692
7,LKHLRQKMNHQN,0.712
8,LKILAQKMNHQN,0.667
9,LKILCQKMNHQN,0.71
10,LKILRCKMNHQN,0.625
11,LKILRQKMNHQK,0.682
12,LKILRQKMNHQNA,0.681
13,LKILRQKMNHQND,0.724
14,LKILRQKMNHQNP,0.688
15,LKILRQKMNHQNT,0.692
16,LKILRQKMNHQR,0.669
17,LKILRQKMNMQN,0.641
18,LKILRQVMNHQN,0.663
19,LKIMRQKMNHQN,0.664
20,LKLLRQKMNHQN,0.682
21,LKVLRQKMNHQN,0.675
22,LMVYLSCVACIN,0.0607
23,LNILRQKMNHQN,0.622
24,LPILRQKMNHQN,0.683

row,Sequence,protein stability index
1,LPVYLSCVACIN,0.19
2,LTILRQKMNHQN,0.679
3,LVLYLSCVACIN,0.0273
4,LVQYLSCVACIN,0.18
5,LVVCLSCVACIN,0.034
6,LVVGLSCVACIN,0.215
7,LVVMLSCVACIN,0.0276
8,LVVYLLCVACIN,0.0739
9,LVVYLSCAACIN,0.166
10,LVVYLSCEACIN,0.0235
11,LVVYLSCKACIN,0.0225
12,LVVYLSCVACAN,0.0251
13,LVVYLSCVACIC,0.0309
14,LVVYLSCVACID,0.0175
15,LVVYLSCVACINI,0.0321
16,LVVYLSCVACINK,0.0356
17,LVVYLSCVACINT,0.0331
18,LVVYLSCVACINY,0.0337
19,LVVYLSCVACIQ,0.0327
20,LVVYLSCVACIS,0.0369
21,LVVYLSCVACIV,0.0299
22,LVVYLSCVAKIN,0.0401
23,LVVYLSCVALIN,0.0501
24,LVVYLSCVHCIN,0.251

row,Sequence,protein stability index
1,LVVYLSCVSCIN,0.0441
2,LVVYNSCVACIN,0.406
3,LVVYQSCVACIN,0.339
4,LVVYTSCVACIN,0.0606
5,PDKMNHLIKLLN,0.614
6,PDKRNHLIKCLN,0.634
7,PDKRNHLIKLEN,0.603
8,PDKRNHLIKLLG,0.614
9,PDKRNHLIKLLK,0.611
10,PDKRNHLIKLLND,0.664
11,PDKRNHLIKLLNP,0.672
12,PDKRNHLIKVLN,0.577
13,PDKRNHLIRLLN,0.614
14,PDKRNHLLKLLN,0.6
15,PDKRRHLIKLLN,0.605
16,PDLAASFWRVVG,0.708
17,PDNRNHLIKLLN,0.604
18,PDTRNHLIKLLN,0.59
19,PGKRNHLIKLLN,0.585
20,PHLAASFWRVVG,0.698
21,PLIQPLPVQFLN,0.604
22,PSDAASFWRVVG,0.702
23,PSLAAKFWRVVG,0.681
24,PSLAASDWRVVG,0.68

row,Sequence,protein stability index
1,PSLAASFWCVVG,0.687
2,PSLAASFWDVVG,0.708
3,PSLAASFWRHVG,0.704
4,PSLAASFWRKVG,0.688
5,PSLAASFWRVVGI,0.696
6,PSLAASFWRVVGS,0.697
7,PSLAASPWRVVG,0.683
8,PSLADSFWRVVG,0.688
9,PSLAMSFWRVVG,0.673
10,PSLHASFWRVVG,0.684
11,PSLVASFWRVVG,0.686
12,PSSAASFWRVVG,0.696
13,QSMRWTFRYWVN,0.691
14,RHIQPLPVQFLN,0.588
15,RKIQPLPVQFLN,0.616
16,RLIIPLPVQFLN,0.551
17,RLIQALPVQFLN,0.683
18,RLIQPAPVQFLN,0.612
19,RLIQPLDVQFLN,0.617
20,RLIQPLEVQFLN,0.665
21,RLIQPLPQQFLN,0.642
